Test results taken from paper PMC10648076, “Statistical Improvement of rGILCC 1 and rPOXA 1B Laccases Activity Assay Conditions Supported by Molecular Dynamics” (Molecules, 2023).

Substrate: CCn1c(=NN=c2sc3cc(S(=O)(=O)O)ccc3n2CC)sc2cc(S(=O)(=O)O)ccc21
Assay: spectrophotometric ABTS oxidation; Michaelis-Menten fit
Type: biochemical, Pleurotus ostreatus
Settings: 100 mM sodium citrate buffer, pH 3.0 ± 0.2, 25 °C, apparent constant, enzyme concentrate
Source text: spectrophotometric ABTS oxidation; Michaelis-Menten fit on rPOXA 1B

B1: rPOXA 1B (Pleurotus ostreatus) (protein)
chain: SIGPRGTLNIANKVIQPDGFYRSTVLAGGSYPGPLIKGKTGDRFQINVVNKLADTSMPVDTSIHWHGLFVKGHNWADGPAMVTQCPIVPGHSFLYDFEVPDQAGTFWYHSHLGTQYCDGLRGPLVVYSKNDPHKRLYDVDDESTVLTVGDWYHAPSLSLTGVPHPDSTLFNGLGRSLNGPASPLYVMNVVKGKRYRIRLINTSCDSNYQFSIDGHTFTVIEADGENTQPLQVDQVQIFAGQRYSLVLNANQAVGNYWIRANPNSGDPGFENQMNSAILRYKGARSIDPTTPEQNATNPLHEYNLRPLIKKPAPGKPFPGGADHNINLNFAFDPATALFTANNHTFVPPTVPVLLQILSGTRDAHDLAPAGSIYDIKLGDVVEITMPALVFAGPHPIHLHGHTFAVVRSAGSSTYNYENPVRRDVVSIGDDPTDNVTIRFVADNAGPWFLHCHIDWHLDLGFAVVFAEGVNQTAAANPVPEAWNNLCPIYNSSNPSKLLMGTNAIGRLPAPLKA
notes: secreted from Pichia pastoris/pGAPZαA-LaccPost-Stop (Clone 1); recombinant culture concentrate, not purified
- Km: 37.2 µM
- Vmax: 10.5 µM/min
